In paper PMC3701320, “Crystal Structures of Malonyl-Coenzyme A Decarboxylase Provide Insights into Its Catalytic Mechanism and Disease-Causing Mutations” (Structure(London, England:1993), 2013):

Tests used:
[1] = target: Rhodopseudomonas palustris malonyl-CoA decarboxylase (RpMCD), residues 8-451 (Rhodopseudomonas palustris); assay: multiangle static light scattering; oligomeric state in solution; data not shown
[2] = target: Cupriavidus metallidurans malonyl-CoA decarboxylase (CmMCD), residues 57-473 (Cupriavidus metallidurans); assay: not stated; oligomeric state of CmMCD in solution; method not given
[3] = target: the molecule itself; assay: SEC + AUC; analytical gel filtration on Superdex 200 in 10 mM HEPES pH 7.5, 150 mM NaCl; sedimentation velocity at 30,000 rpm, 4 °C, 50 μM HsMCD in the same buffer; oligomeric state in solution
[4] = target: the molecule itself; assay: multiangle static light scattering; oligomeric state in solution; data not shown

For “Rhodopseudomonas palustris malonyl-CoA decarboxylase (RpMCD), residues 8-451 (enzyme)”, the stoichiometry N [1] was 4.

“Cupriavidus metallidurans malonyl-CoA decarboxylase (CmMCD), residues 57-473 (enzyme)” gave a stoichiometry N [2] of 2.

B1: Wild-type human malonyl-coenzyme A decarboxylase (HsMCD), residues 40-491 (enzyme, UniProt O95822 40-491, looked up)
chain: MDELLRRAVPPTPAYELREKTPAPAEGQCADFVSFYGGLAETAQRAELLGRLARGFGVDHGQVAEQSAGVLHLRQQQREAAVLLQAEDRLRYALVPRYRGLFHHISKLDGGVRFLVQLRADLLEAQALKLVEGPDVREMNGVLKGMLSEWFSSGFLNLERVTWHSPCEVLQKISEAEAVHPVKNWMDMKRRVGPYRRCYFFSHCSTPGEPLVVLHVALTGDISSNIQAIVKEHPPSETEEKNKITAAIFYSISLTQQGLQGVELGTFLIKRVVKELQREFPHLGVFSSLSPIPGFTKWLLGLLNSQTKEHGRNELFTDSECKEISEITGGPINETLKLLLSSSEWVQSEKLVRALQTPLMRLCAWYLYGEKHRGYALNPVANFHLQNGAVLWRINWMADVSLRGITGSCGLMANYRYFLEETGPNSTSYLGSKIIKASEQVLSLVAQFQKNS
notes: Malonyl-CoA decarboxylase (MCD, E.C. 4.1.1.9), human, residues 40-491, corresponding to the mature mitochondrial form; The His6-tag is TEV-cleavable (vector pNIC28-Bsa4, GenBank EF198106); also called human MCD; Wild-type HsMCD
In the case of B1, the “stoichiometry N” value [3] is reported as 4.

B2: HsMCD E58A/K59A/E278A/E279A/K280A quintuple surface entropy reduction (SER) mutant, residues 40-491 (enzyme, human, UniProt O95822 40-491, looked up)
chain: MDELLRRAVPPTPAYELRAATPAPAEGQCADFVSFYGGLAETAQRAELLGRLARGFGVDHGQVAEQSAGVLHLRQQQREAAVLLQAEDRLRYALVPRYRGLFHHISKLDGGVRFLVQLRADLLEAQALKLVEGPDVREMNGVLKGMLSEWFSSGFLNLERVTWHSPCEVLQKISEAEAVHPVKNWMDMKRRVGPYRRCYFFSHCSTPGEPLVVLHVALTGDISSNIQAIVKEHPPSETAAANKITAAIFYSISLTQQGLQGVELGTFLIKRVVKELQREFPHLGVFSSLSPIPGFTKWLLGLLNSQTKEHGRNELFTDSECKEISEITGGPINETLKLLLSSSEWVQSEKLVRALQTPLMRLCAWYLYGEKHRGYALNPVANFHLQNGAVLWRINWMADVSLRGITGSCGLMANYRYFLEETGPNSTSYLGSKIIKASEQVLSLVAQFQKNS
notes: Malonyl-CoA decarboxylase (MCD), human, residues 40-491 (mature mitochondrial form) with five alanine substitutions for surface entropy reduction; The His6-tag is TEV-cleavable; Crystallised with a dimer in the asymmetric unit; the tetramer is generated through a crystallographic 2-fold axis; also called Quintuple SER mutant; SER quintuple mutant
B2: binds [3].

B3: Agrobacterium vitis malonyl-CoA decarboxylase (AvMCD), residues 1-448 (enzyme)
chain: MAGTSFLSDLLSGVTERGRALLFSGSKARDRVVDTDIETLCEMLLSSRGEASGMAIAAEILDRWSRFNAAEAVQFLHMLSDRFGAEAAALDKAIDAYRTDKSPMAVIALHNAAEPRRQELLRRLNLAPNGTQKLVRMRERLLETKEDRADLGAVDTDFAHLFSSWFNRGFLTLQPIDWTTPAHILEKIIKYEAVHEIAGWEELRRRLAPADRRCFAFFHPRLRDDPLVFVEVALTRSIPSAIADVLDESRDHIGADTATTAVFYSISNCQDGLRGISFGNFLIKQVVEDLRRDLPGLKEFVTLSPVPGFARWISKIRDPKSGFPLSPEDRNTLVLLDDPTWPEDKARADAVERILLPLAARYFITERTPDNRPVDPVARFHLGNGARLERLNFLGDRSVKAMRQAHGLMVNYLYKLEDIETNHEALAQRGEVAASPAVKALQGKIEPI
modifications: selenomethionyl (Se-Met labeled) protein
With B3 the “stoichiometry N” value [4] was 4.
